Positions count from the first letter of the chain named.

Consider seven molecules from patent WO2017222556A2 (dated 2017).

One assay concerns the target T1, NKG2D on NKL cells (human, UniProt P26718 1-216).
T1 sequence (looked up): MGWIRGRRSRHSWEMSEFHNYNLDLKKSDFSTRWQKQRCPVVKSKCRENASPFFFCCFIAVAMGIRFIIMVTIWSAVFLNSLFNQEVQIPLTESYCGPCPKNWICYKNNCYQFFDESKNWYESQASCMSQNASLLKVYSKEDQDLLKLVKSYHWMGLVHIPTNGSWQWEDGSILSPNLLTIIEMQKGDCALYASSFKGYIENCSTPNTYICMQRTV
Kind of assay: cell-based or functional assay.

The target of assay [1] is T2, human NKG2D-Fc (human, UniProt P26718 78-216).
T2 construct: also called human NKG2D-Fc reagent; not shown: Fc part, not described
T2 sequence (looked up): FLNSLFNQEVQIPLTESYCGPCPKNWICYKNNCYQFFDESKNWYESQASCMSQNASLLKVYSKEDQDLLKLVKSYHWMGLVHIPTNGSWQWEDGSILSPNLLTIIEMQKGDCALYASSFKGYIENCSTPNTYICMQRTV
As to the kind of experiment: competition ELISA: inhibition of 2 nM human NKG2D-Fc binding to plate-coated WT sMICA.

For assay [2], the target named is T3, biotinylated human NKG2D (human, UniProt P26718 78-216).
T3 construct: also called surface coated biotinylated human NKG2D; recombinant biotinylated NKG2D
T3 sequence (looked up): T2 sequence (looked up)
Kind of assay: biolayer interferometry (Octet), surface coated biotinylated human NKG2D, 100 nM protein. On the technique in general: BLI is a label-free optical method that tracks binding on a fibre tip over time.

Another assay has as its target T4, mouse NKG2D-Fc (mouse, UniProt O54709 94-232).
T4 construct: also called murine NKG2D-Fc; murine NKG2D; not shown: Fc part, not described
T4 sequence (looked up): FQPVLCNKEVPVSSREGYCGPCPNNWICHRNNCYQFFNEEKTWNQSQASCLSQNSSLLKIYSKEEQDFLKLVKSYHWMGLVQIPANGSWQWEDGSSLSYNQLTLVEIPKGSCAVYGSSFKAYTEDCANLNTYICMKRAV
As to the kind of experiment: competition ELISA: inhibition of mouse NKG2D-Fc binding to plate-coated MICA. A general note: An ELISA detects its analyte on a solid surface through an enzyme-linked reagent.

The target of assay [3] is T3, biotinylated human NKG2D. As to the kind of experiment: biolayer interferometry (Octet), surface-coated biotinylated human NKG2D, titration 1-100 nM.
The target in assay [4] is T3, biotinylated human NKG2D. As to the kind of experiment: biolayer interferometry (Octet), surface-coated biotinylated human NKG2D.
In assay [5] the target is T2, human NKG2D-Fc. Kind of assay: competition ELISA: inhibition of human NKG2D-Fc binding to plate-coated WT sMICA.

B1: al-a2 variant 16 (ligand)
chain: EPHSLRYNLTVLSWDGSVQSGFLTEVHLDGQPFLRCDRQKCRAKPQGQWAEDVLGNKTWDRETRDLTGWGKDLRMTLAHIKDQKEGLHSLQEIRVCEIHEDNSTRSSQHFYYDGELFLSQNLETLEWTMPQSSRAQTLAMNVRNFLKEDAMETDTHYHAMRADCLQELRRYLKSGVVLRRTVPPMVQVTRSEASGGSGDRVTITCRASQDVSTAVAWYQQKPGKAPKLLIYSASFLYSGVPSRFSGSGSGTDFTLTISSLQPEDFATYYCQQSYTTPPTFGQGTKVEIKGGSSRSSSSGGGGSGGGGEVQLVESGGGLVQPGGSLRLSCAASGFTFTSTGISWVRQAPGKGLEWVGRIYPTNGSTNYADSVKGRFTISADTSKNTAYLQMNSLRAEDTAVYYCARTYGIYDLYVDYTEYVMDYWGQGTLVTVSSGGSSRSSSSGGGGSGGGGDIQMTQSPSSLSASGGSGQITVTCRASGFYPWNITLSWRQDGVSLSHDTQQWGDVLPDGQGTYQTWVATRISQGEEQRFTCYMEHSGQHSTHPVPSGKGSHHHHHH
The IC50 is the point on the concentration scale where inhibition reaches its midpoint. Lower therefore signals higher potency. Consider B1, for which the “killing of FGFR3-expressing P815 cells by NKL cells, calcein-release assay, fold against WT at 0.78 nM” value with NKG2D on NKL cells is ~15 fold. In the assay with human NKG2D-Fc [1], the IC50 came to 0.7 nM and the “fold better binding to NKG2D than WT NKG2DL” value (“fold better binding” for short) stood at 27 fold. In the assay with biotinylated human NKG2D [2], this molecule had a fold affinity increase relative to WT al -a2 of 30 fold and a fold reduction in the off-rate relative to WT of 18 fold. Also, in the assay with mouse NKG2D-Fc, the binding result is on record as “binds”.

B2: al-a2 variant 25 (ligand)
chain: B1 chain with Q166S
A word on the Kd: it is the equilibrium constant for the complex coming apart. A lower Kd goes with higher affinity. As to B2, the Kd in the assay with biotinylated human NKG2D [3] turned out to be 0.062 nM. In the assay with NKG2D on NKL cells, the “EC50 for cell killing, fold improvement against variant 16” value was ~5 fold and the “killing of FGFR3-expressing P815 cells by NKL cells, calcein-release assay, fold against variant 16 at 0.2 nM” value is ~3 fold. Moreover, the “fold enhancement in equilibrium binding affinity against variant 16” value with biotinylated human NKG2D [4] came to 8 fold.

B3: al-a2 variant 17 (ligand)
chain: B1 chain with G68L
With B3, in the assay with NKG2D on NKL cells, the “killing of FGFR3-expressing P815 cells by NKL cells, calcein-release assay, fold against WT at 0.78 nM” value was ~15 fold. Besides, in the assay with human NKG2D-Fc [1], the IC50 came to 0.6 nM and the “fold better binding” value came to 32 fold. In the assay with biotinylated human NKG2D [2], this molecule registered a fold affinity increase relative to WT al -a2 of 30 fold and a fold reduction in the off-rate relative to WT of 18 fold.

B4: al-a2 variant 48 (ligand)
chain: B1 chain with E152A, H158I, Q166A
In the case of B4, in the assay with biotinylated human NKG2D [3], the “fold reduction in NKG2D binding affinity” value turned out to be 250 fold.

B5: WED-MICA (ligand)
chain: B1 chain with L125K, R161H
notes: also called WED- al-cc2 domains; WED soluble MICA
As for B5, the binding result with human NKG2D-Fc [5] and with mouse NKG2D-Fc was “binds” in each case.

B6: al-a2 variant 18 (ligand)
chain: B1 chain with S20P, G68L
Consider B6, for which the “killing of FGFR3-expressing P815 cells by NKL cells, calcein-release assay, fold against WT at 0.78 nM” value with NKG2D on NKL cells is ~15 fold. In the assay with human NKG2D-Fc [1], the IC50 is 0.5 nM and the “fold better binding” value was 38 fold. Also, in the assay with biotinylated human NKG2D [2], the fold affinity increase relative to WT al -a2 turned out to be 30 fold and the fold reduction in the off-rate relative to WT is 18 fold.

B7: al-a2 variant 15 (ligand)
chain: B1 chain with L125N
Consider B7, for which, in the assay with human NKG2D-Fc [1], the IC50 amounted to 1.7 nM and the “fold better binding” value worked out at 11 fold. In the assay with mouse NKG2D-Fc, the binding result was “binds”.
